According to article PMC9482650, “Quantitative fragmentomics allow affinity mapping of interactomes” (Nature Communications, 2022):

T1: FRMPD1, Q5SYB0
T1 sequence (Q5SYB0 52-145, limits assumed, looked up): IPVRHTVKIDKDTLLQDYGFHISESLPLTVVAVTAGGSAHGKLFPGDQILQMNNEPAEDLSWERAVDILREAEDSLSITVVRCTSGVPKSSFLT

T2: HTRA4, P83105
T2 sequence (P83105 378-476, limits assumed, looked up): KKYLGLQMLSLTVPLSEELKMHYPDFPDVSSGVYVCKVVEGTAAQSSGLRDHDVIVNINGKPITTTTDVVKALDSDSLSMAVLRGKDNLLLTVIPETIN

T3: RAPGEF6, Q8TEU7
T3 sequence (Q8TEU7 525-625, limits assumed, looked up): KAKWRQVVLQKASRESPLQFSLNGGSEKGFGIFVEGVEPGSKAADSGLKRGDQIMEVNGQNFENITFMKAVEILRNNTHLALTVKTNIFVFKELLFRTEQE

T4: PTPN13_1, Q12923
T4 sequence (Q12923 1088-1188, limits assumed, looked up): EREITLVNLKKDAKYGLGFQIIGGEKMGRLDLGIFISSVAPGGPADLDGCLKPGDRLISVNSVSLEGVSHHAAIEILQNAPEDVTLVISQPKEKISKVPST

T5: SNTG2, Q9NY99
T5 sequence (Q9NY99 68-166, limits assumed, looked up): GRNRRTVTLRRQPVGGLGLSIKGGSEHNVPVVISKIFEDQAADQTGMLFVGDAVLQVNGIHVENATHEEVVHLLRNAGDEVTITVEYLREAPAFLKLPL

T6: TIAM2, Q8IVF5
T6 sequence (Q8IVF5 885-986, limits assumed, looked up): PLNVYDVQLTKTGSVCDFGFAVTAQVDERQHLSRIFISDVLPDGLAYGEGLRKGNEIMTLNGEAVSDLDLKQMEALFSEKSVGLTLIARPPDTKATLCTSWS

T7: DVL3, Q92997
T7 sequence (Q92997 244-331, limits assumed, looked up): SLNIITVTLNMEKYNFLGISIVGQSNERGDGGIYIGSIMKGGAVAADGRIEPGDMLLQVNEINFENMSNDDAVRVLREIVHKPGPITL

T8: SIPA1L2, Q9P2F8
T8 sequence (Q9P2F8 945-1036, limits assumed, looked up): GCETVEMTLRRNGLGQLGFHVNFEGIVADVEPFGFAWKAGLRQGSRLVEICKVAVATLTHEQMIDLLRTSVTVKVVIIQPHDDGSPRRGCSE

T9: PDZD7_3, Q9H5P4
T9 sequence (Q9H5P4 857-944, limits assumed, looked up): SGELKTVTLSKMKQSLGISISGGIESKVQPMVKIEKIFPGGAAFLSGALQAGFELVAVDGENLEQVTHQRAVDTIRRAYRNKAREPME

T10: RHPN1, Q8TCX5
T10 sequence (Q8TCX5 508-602, limits assumed, looked up): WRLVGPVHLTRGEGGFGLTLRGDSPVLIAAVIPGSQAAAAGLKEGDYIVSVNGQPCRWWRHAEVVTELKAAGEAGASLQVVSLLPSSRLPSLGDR

T11: APBA3_1, O96018
T11 sequence (O96018 389-490, limits assumed, looked up): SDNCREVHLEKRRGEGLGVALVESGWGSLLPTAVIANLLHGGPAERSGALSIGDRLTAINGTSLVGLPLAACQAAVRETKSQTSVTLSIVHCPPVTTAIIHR


Tests used:
Test in all cases: holdup assay
Design in all cases: key: below the threshold = too weak to quantify, mostly under pKd 3.1 to 4
Conditions in all cases: plain residues with an end cap or a label only (N-terminal biotin on a linker: ado-ado)
[1] = biological target: PDZRN4_1, Q6ZMN7
Sequence of PDZRN4_1, Q6ZMN7 (Q6ZMN7 213-318): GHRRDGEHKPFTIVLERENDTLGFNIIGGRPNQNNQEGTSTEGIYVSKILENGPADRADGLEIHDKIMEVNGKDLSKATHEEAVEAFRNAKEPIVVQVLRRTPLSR

[2] = biological target: T1, FRMPD1, Q5SYB0
[3] = biological target: T2, HTRA4, P83105
[4] = biological target: FRMPD4, Q14CM0
Sequence of FRMPD4, Q14CM0 (Q14CM0 67-160): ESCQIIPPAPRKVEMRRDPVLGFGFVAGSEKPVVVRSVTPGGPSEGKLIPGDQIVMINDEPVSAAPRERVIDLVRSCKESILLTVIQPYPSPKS

[5] = biological target: T3, RAPGEF6, Q8TEU7
[6] = biological target: T4, PTPN13_1, Q12923
[7] = biological target: ARHGEF12, Q9NZN5-2
Sequence of ARHGEF12, Q9NZN5-2 (Q9NZN5 other isoform, or with tags, fused parts or gaps): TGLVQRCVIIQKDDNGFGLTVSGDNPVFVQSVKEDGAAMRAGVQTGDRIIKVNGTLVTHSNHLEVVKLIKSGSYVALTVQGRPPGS

[8] = biological target: GRIP2_4, Q9C0E4
Sequence of GRIP2_4, Q9C0E4 (Q9C0E4 446-548): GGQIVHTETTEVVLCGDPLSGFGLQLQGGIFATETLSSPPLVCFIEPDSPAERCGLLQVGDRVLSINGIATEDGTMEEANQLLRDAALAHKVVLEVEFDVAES

[9] = biological target: Inadl_6, Q8NI35
Sequence of Inadl_6, Q8NI35 (Q8NI35 1058-1167): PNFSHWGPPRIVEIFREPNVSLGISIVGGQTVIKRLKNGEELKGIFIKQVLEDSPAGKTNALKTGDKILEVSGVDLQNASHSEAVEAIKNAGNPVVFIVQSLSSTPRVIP

[10] = biological target: FRMPD2_1, Q68DX3
Sequence of FRMPD2_1, Q68DX3 (Q68DX3 770-861): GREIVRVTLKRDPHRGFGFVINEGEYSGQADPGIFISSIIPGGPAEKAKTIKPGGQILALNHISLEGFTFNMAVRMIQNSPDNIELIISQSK

[11] = biological target: T5, SNTG2, Q9NY99
[12] = biological target: T6, TIAM2, Q8IVF5
[13] = biological target: T7, DVL3, Q92997
[14] = biological target: DLG2_3, Q15700
[15] = biological target: T8, SIPA1L2, Q9P2F8
[16] = biological target: GRASP, Q7Z6J2
Sequence of GRASP, Q7Z6J2 (Q7Z6J2 96-193): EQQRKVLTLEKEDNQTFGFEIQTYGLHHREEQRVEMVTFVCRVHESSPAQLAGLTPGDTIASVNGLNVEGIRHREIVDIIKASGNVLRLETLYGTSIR

[17] = biological target: FRMPD2_2, Q68DX3
Sequence of FRMPD2_2, Q68DX3 (Q68DX3 944-1038): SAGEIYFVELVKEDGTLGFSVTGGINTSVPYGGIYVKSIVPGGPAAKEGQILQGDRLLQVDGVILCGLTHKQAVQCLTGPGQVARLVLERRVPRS

[18] = biological target: T9, PDZD7_3, Q9H5P4
[19] = biological target: FRMPD2_3, Q68DX3
Sequence of FRMPD2_3, Q68DX3 (Q68DX3 1073-1166): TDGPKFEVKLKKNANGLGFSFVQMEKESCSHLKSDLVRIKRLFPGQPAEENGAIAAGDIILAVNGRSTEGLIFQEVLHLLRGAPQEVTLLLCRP

[20] = biological target: NHERF4_4, Q86UT5
Sequence of NHERF4_4, Q86UT5 (Q86UT5 464-550): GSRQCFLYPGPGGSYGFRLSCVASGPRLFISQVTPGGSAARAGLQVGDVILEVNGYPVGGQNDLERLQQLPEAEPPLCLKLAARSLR

[21] = biological target: MAGI2_3, Q86UL8
Sequence of MAGI2_3, Q86UL8 (Q86UL8 600-682): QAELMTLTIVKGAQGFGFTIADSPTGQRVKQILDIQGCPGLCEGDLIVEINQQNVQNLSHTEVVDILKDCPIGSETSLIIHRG

[22] = biological target: MAGI2_6, Q86UL8
Sequence of MAGI2_6, Q86UL8 (Q86UL8 1141-1229): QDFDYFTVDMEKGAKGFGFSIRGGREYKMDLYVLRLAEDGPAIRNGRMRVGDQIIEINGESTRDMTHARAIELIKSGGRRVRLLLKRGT

[23] = biological target: LNX1_1, Q8TBB1
Sequence of LNX1_1, Q8TBB1 (Q8TBB1 261-371): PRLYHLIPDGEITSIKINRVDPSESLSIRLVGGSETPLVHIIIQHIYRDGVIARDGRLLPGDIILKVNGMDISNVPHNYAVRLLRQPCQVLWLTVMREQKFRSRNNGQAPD

[24] = biological target: Inadl_8, Q8NI35
Sequence of Inadl_8, Q8NI35 (Q8NI35 1425-1530): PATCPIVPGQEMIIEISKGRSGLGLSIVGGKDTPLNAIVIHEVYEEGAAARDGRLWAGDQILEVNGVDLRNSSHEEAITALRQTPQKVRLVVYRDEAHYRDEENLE

[25] = biological target: T10, RHPN1, Q8TCX5
[26] = biological target: LNX1_2, Q8TBB1
Sequence of LNX1_2, Q8TBB1 (Q8TBB1 371-470): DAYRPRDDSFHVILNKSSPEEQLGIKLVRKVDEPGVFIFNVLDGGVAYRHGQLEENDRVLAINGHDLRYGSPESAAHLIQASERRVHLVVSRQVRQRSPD

[27] = biological target: T11, APBA3_1, O96018

| Binder | pKd [1] | pKd [2] | pKd [3] | pKd [4] | pKd [5] | pKd [6] | pKd [7] | pKd [8] | pKd [9] | pKd [10] | pKd [11] | pKd [12] | pKd [13] | pKd [14] | pKd [15] | pKd [16] | pKd [17] | pKd [18] | pKd [19] | pKd [20] | also measured |
| --- | --- | --- | --- | --- | --- | --- | --- | --- | --- | --- | --- | --- | --- | --- | --- | --- | --- | --- | --- | --- | --- |
| MQHQRTHTRV [ZSCAN30, Q86W11] | below the threshold | below the threshold | below the threshold | below the threshold | below the threshold | below the threshold | 3.96 | below the threshold | below the threshold | 3.88 | 3.86 | 3.89 | below the threshold | 4.67 | below the threshold | 4.34 | below the threshold | 4.37 | 3.5 | below the threshold | pKd [21]: below the threshold; pKd [22]: below the threshold; pKd [23]: 3.49; pKd [24]: 4.16; pKd [25]: 3.72; pKd [26]: 3.58; pKd [27]: below the threshold |
| EDGESWEYQI [TRPV6, Q9H1D0] | below the threshold | below the threshold | below the threshold | 3.73 | below the threshold | below the threshold | below the threshold | below the threshold | below the threshold | below the threshold | below the threshold | 3.95 | below the threshold | 3.48 | below the threshold | below the threshold | below the threshold | below the threshold | below the threshold | 3.94 | pKd [21]: below the threshold; pKd [22]: 3.55; pKd [23]: below the threshold; pKd [24]: below the threshold; pKd [25]: below the threshold; pKd [26]: below the threshold; pKd [27]: below the threshold |
| RQKEVRESKC [SCN8A, Q9UQD0] | below the threshold | below the threshold | below the threshold | below the threshold | below the threshold | below the threshold | 3.64 | below the threshold | below the threshold | below the threshold | 4.58 | 4.02 | below the threshold | 4.07 | below the threshold | below the threshold | below the threshold | 3.85 | below the threshold | below the threshold | pKd [21]: 3.51; pKd [22]: below the threshold; pKd [23]: below the threshold; pKd [24]: 3.95; pKd [25]: below the threshold; pKd [26]: below the threshold; pKd [27]: below the threshold |
| NIAESLESLV [PTPRZ1, P23471] | 3.99 | below the threshold | below the threshold | below the threshold | below the threshold | below the threshold | below the threshold | below the threshold | 4 | below the threshold | 4.34 | below the threshold | below the threshold | below the threshold | below the threshold | 3.74 | 4.66 | 4.7 | below the threshold | below the threshold | pKd [21]: 4.44; pKd [22]: 3.96; pKd [23]: 4.36; pKd [24]: below the threshold; pKd [25]: 4.6; pKd [26]: below the threshold; pKd [27]: below the threshold |
| VKRNSKETVV [MARCHF3, Q86UD3] | below the threshold | below the threshold | below the threshold | below the threshold | below the threshold | 3.53 | 4.13 | below the threshold | below the threshold | 3.8 | 4.54 | 3.73 | below the threshold | 4.91 | below the threshold | below the threshold | 3.81 | 4.82 | below the threshold | below the threshold | pKd [21]: 4.2; pKd [22]: below the threshold; pKd [23]: below the threshold; pKd [24]: below the threshold; pKd [25]: 4.07; pKd [26]: 3.68; pKd [27]: below the threshold |
